Source: PMC2654577

Assays:
Test in all cases: enzyme inhibition kinetics
[1] = molecular target: factor XIa catalytic domain K170A (human) (UniProt P03951)
[2] = molecular target: factor XIa catalytic domain K175A (human)
[3] = molecular target: factor XIa catalytic domain R171A (human) (UniProt P03951)
[4] = molecular target: factor XIa catalytic domain R173A (human) (UniProt P03951)
[5] = molecular target: full-length factor XIa autolysis loop variant fXIa-144-149A (human)

k2 (second-order inhibition rate constant) [1]: 1200 M⁻¹ s⁻¹
k2 (second-order inhibition rate constant) [2]: 1000 M⁻¹ s⁻¹
k2 (second-order inhibition rate constant) [3]: 600 M⁻¹ s⁻¹
k2 (second-order inhibition rate constant) [4]: 1300 M⁻¹ s⁻¹
k2 (second-order inhibition rate constant) [5]: 19200 M⁻¹ s⁻¹
B1: C1-inhibitor (natural protein)
chain: NPNATSSSSQDPESLQDRGEGKVATTVISKMLFVEPILEVSSLPTTNSTTNSATKITANTTDEPTTQPTTEPTTQPTIQPTQPTTQLPTDSPTQPTTGSFCPGPVTLCSDLESHSTEAVLGDALVDFSLKLYHAFSAMKKVETNMAFSPFSIASLLTQVLLGAGENTKTNLESILSYPKDFTCVHQALKGFTTKGVTSVSQIFHSPDLAIRDTFVNASRTLYSSSPRVLSNNSDANLELINTWVAKNTNNKISRLLDSLPSDTRLVLLNAIYLSAKWKTTFDPKKTRMEPFHFKNSVIKVPMMNSKKYPVAHFIDQTLKAKVGQLQLSHNLSLVILVPQNLKHRLEDMEQALSPSVFKAIMEKLEMSKFQPTLLTLPRIKVTTSQDMLSIMEKLEFFDFSYDLNLCGLTEDPDLQVSAMQHQTVLELTETGVEAAAASAISVARTLLVFEVQQPFLFVLWDQQHKFPVFMGRVYDPRA
